Measurements from PMC7585440, “Sclerostin inhibits Wnt signaling through tandem interaction with two LRP6 ectodomains” (Nature Communications, 2020).
One block for each binder: values may come before it.

How the values were obtained:
Details in all cases: both partners purified
[1] = target: T1, human LRP6 E1E2 (P21-P630) with a C-terminal 10x His tag (human, UniProt O75581 21-630, labeled with the dye NT-647 in the MST experiments (legends: Cy-5 dye-labeled)); assay: MST; labeled LRP6 E1E2 or LRP6 E1 (~5 nM) titrated with unlabeled Smo-SOST, MBP-SOST, tags or peptides; 20 mM Tris-Cl pH 7.0, 200 mM NaCl, 0.5 mg/ml BSA, 0.05% Tween 20; 22 °C; three independent experiments
T1 construct: low-density lipoprotein receptor-related protein 6 (LRP6), human, ectodomains E1 and E2, residues P21-P630; also called LPR6 E1E2; source: High Five insect cells, secreted, purified (Ni-NTA, HiTrapQ, SEC); for the crystal co-expressed with SOSTtr177
T1 sequence (looked up): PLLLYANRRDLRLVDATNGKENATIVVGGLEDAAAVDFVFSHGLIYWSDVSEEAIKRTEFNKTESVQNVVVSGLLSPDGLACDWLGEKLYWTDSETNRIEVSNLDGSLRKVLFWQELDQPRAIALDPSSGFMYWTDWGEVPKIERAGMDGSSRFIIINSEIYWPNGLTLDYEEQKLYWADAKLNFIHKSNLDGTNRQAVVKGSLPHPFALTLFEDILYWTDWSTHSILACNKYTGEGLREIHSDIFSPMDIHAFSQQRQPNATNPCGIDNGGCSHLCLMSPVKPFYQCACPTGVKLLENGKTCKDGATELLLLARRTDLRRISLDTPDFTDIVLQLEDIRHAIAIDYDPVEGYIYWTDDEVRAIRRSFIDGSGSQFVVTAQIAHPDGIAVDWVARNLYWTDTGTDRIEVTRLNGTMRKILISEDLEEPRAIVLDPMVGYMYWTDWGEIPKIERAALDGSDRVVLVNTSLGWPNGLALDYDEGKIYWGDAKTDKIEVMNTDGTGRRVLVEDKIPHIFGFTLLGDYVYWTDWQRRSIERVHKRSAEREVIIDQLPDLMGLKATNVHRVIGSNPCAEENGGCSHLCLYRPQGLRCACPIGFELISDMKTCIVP

[2] = target: T2, LRP6 E1E2 H404K (human, UniProt O75581 21-630, H404K); assay: cross-linking; purified LRP6 E1E2 H404K–SOST_(tr177) N175K complex with BS3 at room temperature for 30 min; ~90 kDa band cut out, chymotrypsin, LC-MS/MS
T2 construct: Low-density lipoprotein receptor-related protein 6 (LRP6), human, ectodomains E1 and E2 (parent construct P21-P630) with H404K; Mutation introduced into the LRP6 E1E2 of the crystallised complex; also called LRP6 E1E2 with the H404K mutation; source: purified as a complex with SOST_(tr177) N175K
T2 sequence (looked up): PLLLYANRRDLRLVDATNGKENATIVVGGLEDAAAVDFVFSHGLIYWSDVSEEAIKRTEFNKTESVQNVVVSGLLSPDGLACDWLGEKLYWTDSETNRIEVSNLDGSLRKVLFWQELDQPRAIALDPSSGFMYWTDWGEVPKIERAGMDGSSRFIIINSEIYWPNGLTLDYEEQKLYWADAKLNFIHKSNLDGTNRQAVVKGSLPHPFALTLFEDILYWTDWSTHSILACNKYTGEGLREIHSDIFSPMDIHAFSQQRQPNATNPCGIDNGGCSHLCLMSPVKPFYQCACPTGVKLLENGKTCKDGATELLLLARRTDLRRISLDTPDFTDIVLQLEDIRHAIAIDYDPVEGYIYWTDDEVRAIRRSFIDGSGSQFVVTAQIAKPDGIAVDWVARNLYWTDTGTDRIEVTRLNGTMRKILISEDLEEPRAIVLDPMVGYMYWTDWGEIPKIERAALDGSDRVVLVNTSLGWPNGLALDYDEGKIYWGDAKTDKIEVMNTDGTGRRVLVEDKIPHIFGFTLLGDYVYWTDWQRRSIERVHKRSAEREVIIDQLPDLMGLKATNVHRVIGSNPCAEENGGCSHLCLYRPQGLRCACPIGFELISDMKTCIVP

[3] = target: T3, human LRP6 E1E2 (P21–P630) with a C-terminal 10× His tag (human, UniProt O75581 21-630); assay: SEC-MALS; purified complex at 1 mg/ml on Superdex 200 increase 5/150 GL; 50 mM Tris pH 8.5, 150 mM NaCl; protein conjugate method
T3 construct: Low-density lipoprotein receptor-related protein 6 (LRP6), human, ectodomains E1 and E2, residues P21-P630; Unlabelled form: crystal, SEC-MALS and fluorescence-SEC; An anti-His-tag antibody was used for the western blots of the fluorescence-SEC experiment; also called LRP6 ectodomains 1 and 2; source: High Five insect cells (baculovirus), secreted, purified (Ni-NTA, HiTrapQ, SEC); co-expressed …
T3 sequence (looked up): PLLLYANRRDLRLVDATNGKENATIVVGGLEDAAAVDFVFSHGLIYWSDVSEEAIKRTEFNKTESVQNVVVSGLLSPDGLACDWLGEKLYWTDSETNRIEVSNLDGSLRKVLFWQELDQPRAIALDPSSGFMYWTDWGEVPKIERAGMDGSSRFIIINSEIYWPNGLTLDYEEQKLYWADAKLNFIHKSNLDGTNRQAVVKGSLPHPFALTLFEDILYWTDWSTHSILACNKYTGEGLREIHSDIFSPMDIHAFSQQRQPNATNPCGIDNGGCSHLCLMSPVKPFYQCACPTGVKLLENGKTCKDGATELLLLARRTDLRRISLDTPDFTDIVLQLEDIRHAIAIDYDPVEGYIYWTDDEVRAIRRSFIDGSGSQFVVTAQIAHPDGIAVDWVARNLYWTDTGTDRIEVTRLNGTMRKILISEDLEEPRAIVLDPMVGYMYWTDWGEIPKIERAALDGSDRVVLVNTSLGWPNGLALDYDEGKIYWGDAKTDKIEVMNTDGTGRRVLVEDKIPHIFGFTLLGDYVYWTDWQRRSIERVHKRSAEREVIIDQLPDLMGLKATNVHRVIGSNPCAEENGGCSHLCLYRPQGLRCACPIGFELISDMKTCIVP

[4] = target: T4, human LRP6 E1E2 with a C-terminal 10× His tag, labeled with the dye NT-647 (human, UniProt O75581 21-630, dye NT-647 (Monolith NT Protein Labeling kit)); assay: MST; LRP6 E1E2 or E1 labeled with NT-647 at ~5 nM, unlabeled SOST proteins or peptides titrated; 20 mM Tris-Cl pH 7.0, 200 mM NaCl, 0.5 mg/ml BSA, 0.05% Tween 20; 22 °C; Monolith NT.115 Pico
T4 construct: Low-density lipoprotein receptor-related protein 6 (LRP6), human, ectodomains E1 and E2; the limits P21-P630 are printed for the co-expression construct; the MST construct was cloned into another vector (pAcGP67A); also called Labeled LRP6 E1E2; source: High Five insect cells (pAcGP67A), purified (Ni-NTA, HiTrapQ, SEC), no tag cleavage; not shown: His10, C-terminal, kept
T4 sequence (looked up): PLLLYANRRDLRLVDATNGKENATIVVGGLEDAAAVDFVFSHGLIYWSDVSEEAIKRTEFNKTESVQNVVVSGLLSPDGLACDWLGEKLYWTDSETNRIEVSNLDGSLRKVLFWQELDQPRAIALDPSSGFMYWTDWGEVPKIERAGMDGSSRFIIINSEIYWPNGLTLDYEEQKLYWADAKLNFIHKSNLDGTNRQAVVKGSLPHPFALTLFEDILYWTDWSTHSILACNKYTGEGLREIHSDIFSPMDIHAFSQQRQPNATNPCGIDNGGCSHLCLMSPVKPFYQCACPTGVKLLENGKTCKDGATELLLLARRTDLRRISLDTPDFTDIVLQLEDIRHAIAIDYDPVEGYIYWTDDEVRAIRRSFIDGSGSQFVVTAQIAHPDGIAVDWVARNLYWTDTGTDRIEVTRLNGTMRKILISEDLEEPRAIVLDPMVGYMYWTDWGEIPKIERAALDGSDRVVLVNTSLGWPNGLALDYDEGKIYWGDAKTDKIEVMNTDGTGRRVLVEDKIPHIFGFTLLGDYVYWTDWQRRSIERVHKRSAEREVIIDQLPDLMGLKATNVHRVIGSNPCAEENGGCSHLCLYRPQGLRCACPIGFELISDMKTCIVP

[5] = target: T5, human LRP6 E1 (P21-D325) with a C-terminal His tag (human, UniProt O75581 21-325, labeled with the dye NT-647 in the MST experiments (legends: Cy-5 dye-labeled)); assay: MST; labeled LRP6 E1E2 or LRP6 E1 (~5 nM) titrated with unlabeled Smo-SOST, MBP-SOST, tags or peptides; 20 mM Tris-Cl pH 7.0, 200 mM NaCl, 0.5 mg/ml BSA, 0.05% Tween 20; 22 °C; three independent experiments
T5 construct: low-density lipoprotein receptor-related protein 6 (LRP6), human, ectodomain E1, residues P21-D325; The methods name a 10x His tag; also called LPR6 E1; source: High Five insect cells, secreted, purified (Ni-NTA, HiTrapQ, SEC)
T5 sequence (looked up): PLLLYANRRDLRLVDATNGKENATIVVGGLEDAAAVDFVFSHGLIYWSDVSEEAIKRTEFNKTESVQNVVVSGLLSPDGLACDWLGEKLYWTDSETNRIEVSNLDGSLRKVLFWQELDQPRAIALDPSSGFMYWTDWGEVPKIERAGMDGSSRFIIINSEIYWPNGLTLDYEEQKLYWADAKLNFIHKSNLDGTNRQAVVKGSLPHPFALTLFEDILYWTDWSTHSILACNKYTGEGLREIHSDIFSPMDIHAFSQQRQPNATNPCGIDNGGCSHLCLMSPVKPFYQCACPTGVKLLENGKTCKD

B1: human SOSTtr177 (Q24-S177) with an N-terminal His6-SUMO tag (domain or fragment)
chain: QGWQAFKNDATEIIPELGEYPEPPPELENNKTMNRAENGGRPPHHPFETKDVSEYSCRELHFTRYVTDGPCRSAKPVTELVCSGQCGPARLLPNAIGRGKWWRPSGPDFRCIPDRYRAQRVQLLCPGGEAPRARKVRLVASCKCKRLTRFHNQS
notes: sclerostin (SOST), human, residues Q24-S177; also called Smo-SOSTtr177; source: High Five insect cells, secreted, purified; tag not cleaved; not shown: His6, N-terminal, kept; SUMO, N-terminal, kept
Kd [1]: 680 nM

B3: human SOST_(tr177) (Q24-S177) (domain or fragment, UniProt Q9BQB4 24-177, looked up)
chain: QGWQAFKNDATEIIPELGEYPEPPPELENNKTMNRAENGGRPPHHPFETKDVSEYSCRELHFTRYVTDGPCRSAKPVTELVCSGQCGPARLLPNAIGRGKWWRPSGPDFRCIPDRYRAQRVQLLCPGGEAPRARKVRLVASCKCKRLTRFHNQS
notes: Sclerostin (SOST), human, residues Q24-S177; N175 not glycosylated in this construct; also called crystallization construct; not shown: His6, N-terminal, cleaved; MBP, N-terminal, cleaved
stoichiometry N [3]: 1

B5: SOST∆loop2 with an N-terminal His6-SUMO tag (natural protein)
chain: QGWQAFKNDATEIIPELGEYPEPPPELENNKTMNRAENGGRPPHHPFETKDVSEYSCRELHFTRYVTDGPCRSAKPVTELVCSGQCGPAGSGGSGPDFRCIPDRYRAQRVQLLCPGGEAPRARKVRLVASCKCKRLTRFHNQSELKDFGTEAARPQKGRKPRPRARSAKANQAELENAY
Kd [4]: 1000 nM

The next lines start with the values.

binding result [2]: binds
B2: SOST_(tr177) N175K (domain or fragment, human, UniProt Q9BQB4 24-177, looked up)
chain: QGWQAFKNDATEIIPELGEYPEPPPELENNKTMNRAENGGRPPHHPFETKDVSEYSCRELHFTRYVTDGPCRSAKPVTELVCSGQCGPARLLPNAIGRGKWWRPSGPDFRCIPDRYRAQRVQLLCPGGEAPRARKVRLVASCKCKRLTRFHKQS
notes: Sclerostin (SOST), human, residues Q24-S177 (parent SOST_(tr177)) with N175K; also called SOSTtr177 with the N175K mutation; source: purified as a complex with LRP6 E1E2 H404K

Kd [1]: 680 nM
B4: human SOSTtr178 (Q24-E178) with an N-terminal His6-SUMO tag (domain or fragment)
chain: QGWQAFKNDATEIIPELGEYPEPPPELENNKTMNRAENGGRPPHHPFETKDVSEYSCRELHFTRYVTDGPCRSAKPVTELVCSGQCGPARLLPNAIGRGKWWRPSGPDFRCIPDRYRAQRVQLLCPGGEAPRARKVRLVASCKCKRLTRFHNQSE
notes: sclerostin (SOST), human, residues Q24-E178; also called Smo-SOSTtr178; source: High Five insect cells, secreted, purified; tag not cleaved; not shown: His6, N-terminal, kept; SUMO, N-terminal, kept

Kd [5]: 870 nM
B6: human SOSTtr169 (Q24-R169) with an N-terminal His6-SUMO tag (domain or fragment)
chain: QGWQAFKNDATEIIPELGEYPEPPPELENNKTMNRAENGGRPPHHPFETKDVSEYSCRELHFTRYVTDGPCRSAKPVTELVCSGQCGPARLLPNAIGRGKWWRPSGPDFRCIPDRYRAQRVQLLCPGGEAPRARKVRLVASCKCKR
notes: sclerostin (SOST), human, residues Q24-R169; also called Smo-SOSTtr169; source: High Five insect cells, secreted, purified; tag not cleaved; not shown: His6, N-terminal, kept; SUMO, N-terminal, kept
